Experiment [1] addresses T1, LRP2 CR2728 (human, UniProt P98164 3552-3631).
T1 construct: domain: CR2728; Its cloning is not described in the methods; not shown: N-terminal hexahistidine and S-peptide tags of pET30(+)a
T1 sequence (looked up): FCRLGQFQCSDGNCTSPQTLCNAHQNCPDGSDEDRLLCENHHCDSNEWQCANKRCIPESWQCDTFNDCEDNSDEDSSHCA
Nature of the experiment: solid-phase assay on coated CR protein, each ligand at 80 nM, blank-corrected absorbance. The protocol:
(§1) Samples were tested twice, in duplicate, and values combined. Means and standard deviations were then calculated. Blank values obtained from wells incubated in the absence of ligand were used to correct absorbance data.
(§2) Solid phase binding assays-Purified, refolded CR protein (1 μg) was bound to Nunc Maxisorp™ 96-well plates in TBS pH 8 supplemented with 5 mM CaCl₂ (TBSC) overnight at 4° C. Wells were washed with TBSC and then blocked with TBSC containing 2% bovine serum albumin (BSA). […] Control wells contained no added ligand. As an additional control, to determine whether the absence of calcium affected binding, 10 mM EGTA was included in the incubation medium for some samples. […] Excess primary antibody was removed and wells washed before incubation with the secondary antibody, HRP-conjugated goat anti rabbit IgG (Bio-Rad). After washing, TMB substrate solutions (Bio-Rad) were added to detect HRP. Color development was stopped with 1N HCl. Absorption at 450 nm was measured with a microplate spectrophotometer (Molecular Devices). Data were plotted and Kd values derived by non-linear regression with the assumption of single-site binding (GraphPad Prism).

Experiment [2] deals with T2, LRP2 CR3536 (human, UniProt P98164 3882-3963).
T2 construct: domain: CR3536; not shown: N-terminal hexahistidine and S-peptide tags of pET30(+)a
T2 sequence (P98164 3882-3963): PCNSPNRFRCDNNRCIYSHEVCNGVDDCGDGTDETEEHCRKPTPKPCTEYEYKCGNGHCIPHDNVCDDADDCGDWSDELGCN
The experiment is described as above. The protocol:
as §1, §2

The target of experiment [3] is T3, LRP2 CR3031 (human, UniProt P98164 3677-3755).
T3 construct: domain: CR3031; Its cloning is not described in the methods; not shown: N-terminal hexahistidine and S-peptide tags of pET30(+)a
T3 sequence (P98164 3677-3755): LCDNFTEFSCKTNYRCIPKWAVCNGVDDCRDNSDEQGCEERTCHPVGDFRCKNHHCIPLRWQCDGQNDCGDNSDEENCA
Described as above. The protocol: as §1, §2

Experiment [4] has as its target T4, LRP2 CR89 (human, UniProt P98164 1025-1102).
T4 construct: domain: CR89; also called YVWR; L2 CR89; not shown: N-terminal hexahistidine and S-peptide tags of pET30(+)a
The description is as above. The protocol:
as §1, §2

Experiment [5] addresses T5, LRP2 CR34-36 (human, UniProt P98164 3841-3963).
T5 construct: domain: CR34-36; not shown: N-terminal hexahistidine and S-peptide tags of pET30(+)a
Described as above. The protocol:
as §1, §2

Experiment [6] has as its target T6, recombinant human LRP1 ligand binding cluster II (amino acids 786-1165, C-terminal Fc) (human).
T6 construct: range 786-1165; Bought from R&D Systems, NS0-expressed; also called rhLRP1 cluster II; hrLRP1 cluster II
As to the kind of experiment: solid-phase binding assay, receptor coated on plate, streptavidin-HRP detection, EDTA-subtracted. The protocol:
(§3) Solid phase binding assays were carried out as follows. Recombinant murine VLDLR ectodomain (aa 1-798, C-terminal hexahistidine, 1 μg) or rhLRP1 cluster II (aa 786-1165, C-terminal Fc, 1 μg) were bound to Nunc Maxisorp™ 96-well plates in TBS pH 8 supplemented with 5 mM CaCl₂ (TBSC) overnight at 4° C. Wells were washed with TBSC and then blocked with TBSC containing 2% BSA. Peptides were then incubated with the immobilized receptor at a range of concentrations for 2 hours in the above blocking buffer supplemented with 0.05% Tween-20 at room temperature. Identical binding reactions were done in the presence of 50 mM EDTA to provide a measure of non-specific binding. Control wells contained no added peptide. […] Excess streptavidin-HRP or primary antibody was removed and wells washed before incubation with the secondary antibody, when necessary, HRP-conjugated goat anti rabbit IgG (Bio-Rad). Color was developed using TMB reagents (BioRad). Absorption at 450 nm was measured with a microplate spectrophotometer (Molecular Devices). Absorption obtained in the presence of EDTA was subtracted from absorption obtained in the presence of calcium prior to analysis. Data were plotted and Kd values derived by non-linear regression with the assumption of single-site binding (GraphPad Prism).

Experiment [7] concerns the target T7, recombinant mouse VLDLR ectodomain (amino acids 1-798, C-terminal hexahistidine) (mouse, UniProt P98156 28-798).
T7 construct: range 1-798; Bought from R&D Systems, NS0-expressed; The printed range starts at 1 and so may count a signal peptide; also called rmVLDLR ectodomain; mVLDLR
Described as above. The protocol: as §3

Experiment [8] addresses T8, 8D6 CR12 (CR pair from FDC-8D6 antigen, CD320) (human, UniProt Q9NPF0 53-168).
T8 construct: also called FDC-8D6 antigen pair; target CR pair from FDC-8D6 antigen; not shown: N-terminal hexahistidine and S-peptide tags of pET30(+)a
As to the kind of experiment: solid-phase binding assay, CR protein coated on plate. The protocol: Control wells contained no added ligand. As an additional control, to determine whether the absence of calcium affected binding, 10 mM EGTA was included in the incubation medium for some samples. […] Excess primary antibody was removed and wells washed before incubation with the secondary antibody, HRP-conjugated goat anti rabbit IgG (Bio-Rad). After washing, TMB substrate solutions (Bio-Rad) were added to detect HRP. Color development was stopped with 1N HCl. Absorption at 450 nm was measured with a microplate spectrophotometer (Molecular Devices). Data were plotted and Kd values derived by non-linear regression with the assumption of single-site binding (GraphPad Prism).

Experiment [9] has as its target T8, 8D6 CR12 (CR pair from FDC-8D6 antigen, …). Nature of the experiment: solid-phase assay on the coated FDC-8D6 antigen CR pair, relative binding.
Experiment [10] concerns the target T9, MAT CR12 (human, UniProt Q9Y5Y6 452-524).
T9 construct: also called ST14 CR12; matriptase CR12
T9 sequence: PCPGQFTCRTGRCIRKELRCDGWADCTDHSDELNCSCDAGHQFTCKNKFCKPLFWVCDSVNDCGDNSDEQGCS
Nature of the experiment: binding of truncated MatRAP1 forms to MAT CR12, relative signal under isomolar conditions. The protocol:
as §2

In experiment [11] the target is T6, recombinant human LRP1 ligand binding …. Nature of the experiment: competition ELISA, inhibition of RAP d3 (2 nM) binding to coated LRP1 cluster II-Fc. The protocol: (§4) Solid phase binding assays were performed using recombinant human LRP1 cluster II (amino acids 786-1165, with C-terminal Fc tag, 1 μg, R&D Systems, Minneapolis, Minn.) to coat Nunc MAXISORP™ 96-well plates in TBS pH 8 supplemented with 5 mM CaCl₂ (TBSC) overnight at 4° C. Data was generated by ELISA assay. Wells were washed with TBSC and blocked with TBSC containing 2% BSA. […] Control wells contained no added inhibitor. Wells were washed with TBS supplemented with 5 mM CaCl₂ and 0.05% Tween-20. Bound ligand was detected with either anti-S-peptide-HRP conjugate (Abcam, Cambridge, Mass.), anti-α-2-macroglobulin-HRP or anti-PAI-1-HRP. Excess HRP conjugate was removed and wells washed. Color was developed using TMB reagents (BioRad, Hercules, Calif.). Absorption at 450 nm was measured with a microplate spectrophotometer (Molecular Devices, Palo Alto, Calif.).
In general terms: An ELISA detects its analyte on a solid surface through an enzyme-linked reagent.

Experiment [12] shares this target. Nature of the experiment: inhibitor pre-incubated with coated LRP1 cluster II-Fc, washed, then RAP d3 added; inhibition of RAP d3 binding. The protocol:
as §4

The target is the same in experiment [13]. Nature of the experiment: competition ELISA on coated LRP1 cluster II-Fc; competitor called the heterologous ligand (FIG. 14C; the figure legend names uPA-PAI-1). The protocol:
as §4

T6 sequence (Q07954 786-1165): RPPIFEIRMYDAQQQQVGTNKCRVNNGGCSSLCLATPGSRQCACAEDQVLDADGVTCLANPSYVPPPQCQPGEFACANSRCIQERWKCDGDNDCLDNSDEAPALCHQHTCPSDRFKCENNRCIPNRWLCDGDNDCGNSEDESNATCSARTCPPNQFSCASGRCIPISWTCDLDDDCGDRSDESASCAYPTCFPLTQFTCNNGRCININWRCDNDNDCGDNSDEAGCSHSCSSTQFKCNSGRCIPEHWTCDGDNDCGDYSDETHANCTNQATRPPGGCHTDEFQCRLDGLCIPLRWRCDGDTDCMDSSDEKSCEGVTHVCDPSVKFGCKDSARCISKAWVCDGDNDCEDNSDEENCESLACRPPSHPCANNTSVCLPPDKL
T5 sequence (P98164 3841-3963): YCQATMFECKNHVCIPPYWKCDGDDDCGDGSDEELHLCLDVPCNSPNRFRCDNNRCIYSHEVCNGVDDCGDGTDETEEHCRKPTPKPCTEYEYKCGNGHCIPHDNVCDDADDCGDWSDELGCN
T8 sequence (Q9NPF0 other isoform, or with tags, fused parts or gaps): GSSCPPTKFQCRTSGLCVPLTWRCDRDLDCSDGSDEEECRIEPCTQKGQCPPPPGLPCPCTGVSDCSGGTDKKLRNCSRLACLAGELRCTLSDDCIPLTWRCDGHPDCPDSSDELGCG
T4 sequence (P98164 1025-1102): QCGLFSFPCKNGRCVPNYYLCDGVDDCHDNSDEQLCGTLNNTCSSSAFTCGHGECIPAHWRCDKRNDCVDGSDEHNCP
T7 sequence (P98156 other isoform, or with tags, fused parts or gaps limits assumed, form in doubt): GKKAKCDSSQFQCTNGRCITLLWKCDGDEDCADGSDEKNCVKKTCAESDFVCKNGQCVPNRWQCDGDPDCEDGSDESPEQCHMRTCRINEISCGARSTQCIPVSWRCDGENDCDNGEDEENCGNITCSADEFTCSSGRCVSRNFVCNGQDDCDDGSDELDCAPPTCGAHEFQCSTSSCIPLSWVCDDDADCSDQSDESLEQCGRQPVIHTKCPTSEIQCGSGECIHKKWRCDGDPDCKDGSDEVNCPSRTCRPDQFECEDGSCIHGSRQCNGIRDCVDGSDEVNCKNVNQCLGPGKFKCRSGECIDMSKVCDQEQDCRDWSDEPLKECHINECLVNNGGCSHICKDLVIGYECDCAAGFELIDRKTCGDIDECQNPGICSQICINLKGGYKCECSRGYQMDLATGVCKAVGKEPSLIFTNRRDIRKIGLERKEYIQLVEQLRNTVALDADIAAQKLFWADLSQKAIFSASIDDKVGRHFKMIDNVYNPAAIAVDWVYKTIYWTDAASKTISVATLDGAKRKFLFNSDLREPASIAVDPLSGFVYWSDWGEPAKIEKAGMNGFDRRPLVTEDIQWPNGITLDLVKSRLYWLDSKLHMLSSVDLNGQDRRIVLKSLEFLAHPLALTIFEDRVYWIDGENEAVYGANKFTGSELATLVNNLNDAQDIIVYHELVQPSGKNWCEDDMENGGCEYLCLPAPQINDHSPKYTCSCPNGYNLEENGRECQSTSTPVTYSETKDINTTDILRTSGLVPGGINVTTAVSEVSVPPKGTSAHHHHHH

B1: MatRAP2 d3 (ligand)
chain: LDRLRRVSHQGYSTEAEFEEPRVIDLWDLAQPANLTDKGLEAFREGLKHFLAKIEPHNHYQKQLETVREPLRYAESVGDGERVSRSHEKYALLEGRTRELGYTVKKHLQDLFGRISRAR
notes: Selected by phage panning on MAT CR34; also called RAP vMB; not shown: N-terminal hexahistidine and S-peptide tags of pET30(+)a
For B1, the binding result in experiment [1], in experiment [2], in [3], in [4] and in experiment [5] was “no binding (tested: 80 nM)” each time.

B2: tag-free RAP d3 peptide (amino acids 201-319 of mature human RAP, C-terminal cysteine linked to biotin) (ligand)
chain: LDRLRRVSHQGYSTEAEFEEPRVIDLWDLAQSANLTDKELEAFREELKHFEAKIEKHNHYQKQLEIAHEKLRHAESVGDGERVSRSREKHALLEGRTKELGYTVKKHLQDLSGRISRARC
modifications: C-terminal cysteine linked to maleimide-PEO2-biotin
notes: Bacterially expressed, from GeneScript; lacks HNEL; also called full-length RAP d3
The Kd is the equilibrium constant for the complex coming apart. As to B2, the Kd in [6] was found to be 8 nM; in experiment [7], 1 nM.

B3: 320RAP1 truncated variant (identical truncations as MatRAP1, amino acids 243-313) (ligand)
chain: FREELKHFEAKIESHNHYQKQLEIAHESMRHAESVGYGERMSRSREKHALLEGRTKELGYTVTMHLQDLSG
notes: also called truncated form of 320RAP1; not shown: N-terminal hexahistidine and S-peptide tags of pET30(+)a
As for B3, in experiment [8], the “fold improvement in affinity against the full-length variant” value came out at 3.5 fold.

B4: 320RAP1 (full-length d3 variant) (ligand)
chain: LDRLRRVSHQGYSTEAEFEEPRVIDLWDLAQSANLTDKELEAFREELKHFEAKIESHNHYQKQLEIAHESMRHAESVGYGERMSRSREKHALLEGRTKELGYTVTMHLQDLSGRISRAR
notes: Selected by phage panning on the CR pair of FDC-8D6 antigen; not shown: N-terminal hexahistidine and S-peptide tags of pET30(+)a
The term EC50 (read off the curve) denotes the concentration giving half of the maximal effect. A low value points to a more potent agent. Turning to B4, the “EC50 (read off the curve)” value in experiment [9] was about 7 nM.

B5: MatRAP1 d3 (ligand)
chain: LDRLRRVSHQGYSTEAEFEEPRVIDLWDLAQSANLTDKELEAFREELKHFGAKIERHNHYQKQLEIAHEWLRHAESVGDGERVSRSREKHALLEGRTKELGYTVKKHLQDLSGRISRAR
notes: Selected by phage panning on MAT CR23; also called RAP vMA; not shown: N-terminal hexahistidine and S-peptide tags of pET30(+)a
In the case of B5, the binding result in experiment [1], in experiment [2], in experiment [3], in [4] and in experiment [5] was “no binding (tested: 80 nM)” in each case. The “fnctn (relative binding signal under isomolar conditions)” value in experiment [10] turned out to be 0.22.

B6: mRAPc (peptide)
peptide: CGFREELKHFEAKIEKHNHYQKQLEIAHEKLRHAESVGDGERVSRSREKHALLEGRTKELGYTVKKHLQDLSGGC
modifications: N-terminal biotin-GGSGG; intramolecular disulfide between C241 and C315 (mature RAP numbering)
notes: Synthetic; also called mRAPc peptide; monomeric peptide
By EC50 is commonly meant the concentration at which the effect is half-maximal. B6: the values for the half-maximal effective concentration (EC50) in experiment [11], in [12] and in experiment [13] were 32 nM, 17 nM and 7 nM, respectively. Further, the Kd turned out to be 10 nM in experiment [6] and 5 nM in [7].

These data come from US20100210517A1 (RAPTOR PHARMACEUTICAL, published 2010).
